# Data taken from patent publication US20250296971A1, “GASTRIC INHIBITORY PEPTIDE RECEPTOR LIGANDS” (priority 2021, published 2025).
# *1 amine or outer side, *2 acyl side, *3 side chain or, on linkers, in order; H or OH if unused. Bridges are numbered along the chain shown (N, C = ends). Primed or numbered codes have the meaning given here. Where no end group is shown, it is not given here. [ ]: non-standard residue; d: D form. The star is where a group is joined. Ttds = 1,13-diamino-4,7,10-trioxatridecan-succinamic acid, NCCCOCCOCCOCCCNC(=O)CCC(=O)*; tMeBn(DOTA-PP) = mesitylene bridge bearing DOTA via piperazine; APAc″ = 4-amino-1-carboxymethylpiperidine, NC1CCN(CC(=O)*)CC1; dE(AGLU) = D-glutamic acid bearing 1-amino-1-deoxy-D-glucitol; MeO36PEG = monodisperse PEG 36 units conjugated with acetyl; Pro(trans-4-NH2) = O=C([C@@H]1C[C@@H](N[*:3])CN1[*:1])[*:2]; DOTA = O=C(O)CN1CCN(CC(=O)O)CCN(CC(=O)*)CCN(CC(=O)O)CC1; Trp(5-Cl) = N[C@@H](Cc1c[nH]c2ccc(Cl)cc12)C(=O)O; Trp(6-Cl) = N[C@@H](Cc1c[nH]c2cc(Cl)ccc12)C(=O)O; Phe(3,5-Cl2) = N[C@@H](Cc1cc(Cl)cc(Cl)c1)C(=O)O; Pyridine(2,6-diCH2) = c1cc(C[*:1])nc(C[*:2])c1; 2Lut″ = 2,6-lutidylidene linking two thiols; APAc = 4-amino-1-carboxymethylpiperidine; Phe(2-Cl) = N[C@@H](Cc1ccccc1Cl)C(=O)O; 1Nal = N[C@@H](Cc1cccc2ccccc12)C(=O)O; mXylylene = c1cc(C[*:1])cc(C[*:2])c1; Glutaryl = O=C(CCCC(=O)[*:2])[*:1]; AGLU = 1-amino-1-deoxy-D-glucitol; Hyp = O=C(O)[C@@H]1C[C@@H](O)CN1; Cysteamide = C(CS[*:3])N[*:1]; hLeu = CC(C)CC[C@H](N)C(=O)O; GLUSEROL = not defined here; NTASEROL = not defined here; 2Lut(3) = 2,6-lutidylidene; hCys = N[C@@H](CCS)C(=O)O; Api = NC1(C(=O)O)CCNCC1; Thp = NC1(C(=O)O)CCOCC1; Aib = CC(C)(N)C(=O)O; mli″ = maleimide
# Columns and labels:
# [1] = biological target: human Gastric Inhibitory Peptide Receptor (human) (UniProt P48546); assay: FACS competition with GIP-057 on CHO-K1-hGIPR cells; pIC50 category B: 7.1-8.0
# Chain of human Gastric Inhibitory Peptide Receptor (human) (P48546 22-466 limits assumed): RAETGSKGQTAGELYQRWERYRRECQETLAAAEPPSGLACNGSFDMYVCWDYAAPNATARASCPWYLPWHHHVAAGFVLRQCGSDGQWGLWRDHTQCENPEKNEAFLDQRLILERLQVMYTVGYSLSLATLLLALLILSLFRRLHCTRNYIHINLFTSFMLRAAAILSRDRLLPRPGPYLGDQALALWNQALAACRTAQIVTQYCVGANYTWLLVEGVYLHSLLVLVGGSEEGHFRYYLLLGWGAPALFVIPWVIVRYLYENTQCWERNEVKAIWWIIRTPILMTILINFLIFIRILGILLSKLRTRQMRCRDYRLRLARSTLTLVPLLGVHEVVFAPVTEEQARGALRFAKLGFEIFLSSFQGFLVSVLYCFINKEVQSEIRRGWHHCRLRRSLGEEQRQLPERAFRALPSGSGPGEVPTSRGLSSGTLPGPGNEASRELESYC
# [2] = biological target: human Gastric Inhibitory Peptide Receptor (GIPR) (human) (UniProt P48546); assay: FACS competition vs biotinylated GIP-057 on CHO-K1-hGIPR cells; category B: pIC50 7.1-8.0
# Chain of human Gastric Inhibitory Peptide Receptor (GIPR) (human) (P48546 22-466 limits assumed): as above
# [3] = biological target: biotinylated extracellular domain of the human GIP receptor (bioGIPR) (human) (UniProt P48546); assay: SPR single cycle kinetics, bioGIPR captured on chip; category A: pKD >9.0
# Chain of biotinylated extracellular domain of the human GIP receptor (bioGIPR) (human) (P48546 24-138 limits assumed): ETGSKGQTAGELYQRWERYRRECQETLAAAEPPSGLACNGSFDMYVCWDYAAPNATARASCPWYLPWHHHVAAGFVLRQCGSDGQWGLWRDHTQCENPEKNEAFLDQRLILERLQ
# [4] = biological target: human Gastric Inhibitory Peptide Receptor (GIPR) (human) (UniProt P48546); assay: FACS competition vs biotinylated GIP-057 on CHO-K1-hGIPR cells; category A: pIC50 >8.0
# [5] = biological target: biotinylated extracellular domain of the human GIP receptor (bioGIPR) (human) (UniProt P48546); assay: SPR single cycle kinetics, bioGIPR captured on chip; category A: t1/2 >15 min
pIC50 [1],pIC50 [2],Binder,also measured
7.1 to 8 pic50,,{DOTA-Ttds}-D[Trp(6-Cl)]WPE[dL]C[Aib]LI[Cysteamide] (linker 7-11 via mXylylene) [DOTA-Ttds-Asp-6Clw-Trp-Pro-Glu-leu-[Cys(3MeBn)-Aib-Leu-Ile-AET]],
,7.1 to 8 pic50,Ac-DW[1Nal][Pro(trans-4-NH2)](DOTA)E[hLeu]C[Aib]LIC-NH2 (linker 7-11 via mXylylene) [Ac-Asp-Trp-1Ni-Tap(DOTA)-Glu-Hle-[Cys(3MeBn)-Aib-Leu-Ile-Cys]-NH2],
,7.1 to 8 pic50,Ac-DW[Trp(5-Cl)][Pro(trans-4-NH2)](DOTA)E[dL]C[Thp]LFC-NH2 (linker 7-11 via 2Lut″) [Ac-Asp-Trp-5Clw-Tap(DOTA)-Glu-leu-[Cys(2Lut)-Thp-Leu-Phe-Cys]-NH2],
,7.1 to 8 pic50,"Ac-DW[Trp(5-Cl)][Hyp]E[dL]C[Thp]LFC-{(dK)(DOTA)-NH2} (linker 7-11 via Pyridine(2,6-diCH2)) [Ac-Asp-Trp-5Clw-Hyp-Glu-leu-[Cys(2Lut)-Thp-Leu-Phe-Cys]-lys(DOTA)-NH2]",
7.1 to 8 pic50,,Ac-DW[Trp(5-Cl)][Hyp]E[dL]C[Thp]LIC-NH2 (linker 7-11 via tMeBn(DOTA-PP)) [Ac-Asp-Trp-5Clw-Hyp-Glu-leu-[Cys(tMeBn(DOTA-PP))-Thp-Leu-Ile-Cys]-NH2],
,7.1 to 8 pic50,Ac-DW[Trp(5-Cl)][Hyp]E[dL][hCys][Thp]LIC-NH2 (linker 7-11 via mli″) [Ac-Asp-Trp-5Clw-Hyp-Glu-leu-[Hcy(mli)-Thp-Leu-Ile-Cys]-NH2],
,7.1 to 8 pic50,Ac-DW[Trp(5-Cl)][Hyp]E[dL][hCys][Thp]LI[hCys]-NH2 (disulfide 7-11) [Ac-Asp-Trp-5Clw-Hyp-Glu-leu-[Hcy-Thp-Leu-Ile-Hcy]-NH2],
,7.1 to 8 pic50,"Ac-D[Phe(2-Cl)][Trp(5-Cl)][Hyp]E[dL]C[Thp]LIC-NH2 (linker 7-11 via Pyridine(2,6-diCH2)) [Ac-Asp-Ocf-5Clw-Hyp-Glu-leu-[Cys(2Lut)-Thp-Leu-Ile-Cys]-NH2]",

# Further lines, the binder ahead of its results:
Binder,pIC50 [1],pIC50 [2],also measured
"{AGLU-Glutaryl-APAc″}-DW[Trp(5-Cl)][Hyp]E[dL]C[Api](DOTA)LIC (linker 7-11 via Pyridine(2,6-diCH2); not fully specified (C-terminus)) [AGLU-Glutar-APAc-Asp-Trp-5Clw-Hyp-Glu-leu-[Cys(2Lut)-Apc(DOTA)-Leu-Ile-Cys]-lys(MeO36PEG)-NH2]",7.1 to 8 pic50,,
XWXXEXCXLIC (N-term AGLU-Glutar-APAc; Hse; 5Clw; Tap; leu (D-Leu); thioether cycle [Cys(2Lut)..Cys]; Apc(DOTA); C-term APAc-glu(AGLU)-NH2) [AGLU-Glutar-APAc-Hse-Trp-5Clw-Tap-Glu-leu-[Cys(2Lut)-Apc(DOTA)-Leu-Ile-Cys]-APAc-glu(AGLU)-NH2],7.1 to 8 pic50,,
{DOTA-Ttds}-D[Phe(2-Cl)][Trp(5-Cl)][Hyp]E[dL]C[Thp]LIC-NH2 (linker 7-11 via 2Lut(3)) [DOTA-Ttds-Asp-Ocf-5Clw-Hyp-Glu-leu-[Cys(2Lut)-Thp-Leu-Ile-Cys]-NH2],,7.1 to 8 pic50,
"Ac-DW[Phe(2,3-Cl2)][Hyp]E[dL]C[Thp]LIC-NH2 (linker 7-11 via 2Lut″) [Ac-Asp-Trp-Egp-Hyp-Glu-leu-[Cys(2Lut)-Thp-Leu-Ile-Cys]-NH2]",,7.1 to 8 pic50,
"{MeO36PEG-APAc″}-DW[Trp(5-Cl)][Hyp]E[dL]C[Api](DOTA)LIC-{dE(AGLU)-NH2} (linker 7-11 via Pyridine(2,6-diCH2)) [MeO36PEG-APAc-Asp-Trp-5Clw-Hyp-Glu-leu-[Cys(2Lut)-Apc(DOTA)-Leu-Ile-Cys]-glu(AGLU)-NH2]",7.1 to 8 pic50,,
"Ac-D[Phe(3,5-Cl2)][Trp(5-Cl)][Hyp]E[dL]C[Thp]LIC-NH2 (linker 7-11 via Pyridine(2,6-diCH2); SMILES CC[C@H](C)[C@@H]1NC(=O)[C@H](CC(C)C)NC(=O)C2(CCOCC2)NC(=O)[C@@H](NC(=O)[C@@H](CC(C)C)NC(=O)[C@H](CCC(=O)O)NC(=O)[C@@H]2C[C@@H](O)CN2C(=O)[C@H](Cc2c[nH]c3ccc(Cl)cc23)NC(=O)[C@H](Cc2cc(Cl)cc(Cl)c2)NC(=O)[C@H](CC(=O)O)NC(C)=O)CSCc2cccc(n2)CSC[C@@H](C(N)=O)NC1=O) [Ac-Asp-Egn-5Clw-Hyp-Glu-leu-[Cys(2Lut)-Thp-Leu-Ile-Cys]-NH2]",,7.1 to 8 pic50,
"{MeO36PEG-APAc}-DW[Trp(5-Cl)][Pro(trans-4-NH2)]E[dL]C[Api](DOTA)LIC-{APAc-dE(AGLU)-NH2} (linker 7-11 via Pyridine(2,6-diCH2)) [MeO36PEG-APAc-Asp-Trp-5Clw-Tap-Glu-leu-[Cys(2Lut)-Apc(DOTA)-Leu-Ile-Cys]-APAc-glu(AGLU)-NH2]",7.1 to 8 pic50,,
"Ac-DW[Trp(5-Cl)][Hyp]P[dL]C[Thp]LIC-NH2 (linker 7-11 via Pyridine(2,6-diCH2)) [Ac-Asp-Trp-5Clw-Hyp-Pro-leu-[Cys(2Lut)-Thp-Leu-Ile-Cys]-NH2]",,7.1 to 8 pic50,
"{NTASEROL}-DW[Trp(5-Cl)][Pro(trans-4-NH2)]E[dL]C[Api](DOTA)LIC-{APAc-GLUSEROL} (linker 7-11 via Pyridine(2,6-diCH2); reading uncertain) [NTASEROL-Asp-Trp-5Clw-Tap-Glu-leu-[Cys(2Lut)-Apc(DOTA)-Leu-Ile-Cys]-APAc-GLUSEROL]",,,pKD [3]: > 9 pkd; pIC50 [4]: > 8 pic50; t1/2 [5]: > 15 min
"Ac-DW[Trp(5-Cl)][Hyp]W[dL]C[Thp]LIC-NH2 (linker 7-11 via Pyridine(2,6-diCH2)) [Ac-Asp-Trp-5Clw-Hyp-Trp-leu-[Cys(2Lut)-Thp-Leu-Ile-Cys]-NH2]",,7.1 to 8 pic50,
